Results reported in the supplement of paper PMC9170038.

System: MS2 coat protein
Assay: apparent KD of MS2 coat protein; designed switch direction (-1 OFF switch, 1 ON switch): -1; higher = weaker reporter binding
Method in brief: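 Three titration conditions were used: no input, 200 uM small-molecule ligand, and an oligonucleotide input. In each, SNAP-549-labelled MS2 coat protein was raised from 0.7 or 1.5 nM, doubling, to 3 µM over designed RNA switches transcribed on Illumina chips by stalled E. coli RNA polymerase. Curve fits of normalised cluster fluorescence gave values whose per-design median over clusters is the apparent KD.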

[1] = input ligand: microRNA oligo, concentration not stated
[2] = Eterna round: R95, input ligand: FMN 200 uM
[3] = Eterna round: R95, input ligand: microRNA oligo, concentration not stated
[4] = Eterna round: R95, input ligand: none

Sequence | apparent KD of MS2 coat protein (input ligand: FMN 200 uM) | apparent KD of MS2 coat protein [1] | apparent KD of MS2 coat protein (input ligand: none) | apparent KD of MS2 coat protein [3] | further results
GUCAGCUCGUCAGGAUAUACAUGAGGAUCACCCAUGUGAUCAAUAGCAGCUUCGGCUGCAAUAAUGUAGAAGGGACGAGCUGAC [ENG2/8-F] (Eterna round: R96, puzzle: Exclusion NG 2) | 129 nM | 578 nM | 180 nM |  | 
GUCAGCUCGUCAGGAUAUACAUGAGGAUCACCCAUGUGAUCAAUAGCAGCUUCGGCUGCAUUAAUGUAGAAGGGACGAGCUGAC [ENG2/5-B1] (Eterna round: R96, puzzle: Exclusion NG 2) | 34.7 nM | 33 nM | 368 nM |  | 
GUCAGCUCGUCAGGAUAUACAUGAUAGAUCGAUUAAUUAAUUAAUUUAACAUGAGGAUCACCCAUGUAGAAGGGACGAGCUGAC [ENG2/1-B1] (Eterna round: R96, puzzle: Exclusion NG 2) |  | 39.8 nM |  |  | 
GUCAGCUCGUGAGGAUAUACAUGAGGAUCACCCAUGUGAUCAAUAGCAGCUUCGGCUGCAUUAAUGUAGAAGGUACGAGCUGAU [ENG2/5-C2] (Eterna round: R96, puzzle: Exclusion NG 2) | 105 nM | 231 nM | 463 nM |  | 
GUCAGCUCGUGAGGAUAUAUAUACAUGAGGAUCACCCAUGUAAGAUCAGCACUUCGGUGCAGUAUAUAGAAGGCACGAGCUGAC [ENG2/13-A1] (Eterna round: R96, puzzle: Exclusion NG 2) | 46.1 nM | 21.6 nM | 29.1 nM |  | 
GUCAGCUCGUGAGGAUAUAUAUUAACAUGAGGAUCACCCAUGUAAGAUCAGCUUCGGCAGUUAAUAUAGAAGGCACGAGCUGAC [ENG2/14-A1] (Eterna round: R96, puzzle: Exclusion NG 2) |  | 137 nM |  |  | 
GUCAGCUCGUGAGGAUAUGCACAUGAGGAUCACCCAUGUAAGAUCAAGCUGCUUCGGCAGCAAGUGCAGAAGGUACGAGCUGAU [ENG2/9-C3] (Eterna round: R96, puzzle: Exclusion NG 2) | 257 nM | 225 nM | 286 nM |  | 
GUCAUCGCAGGAUAUUAGAGUUUUUACAUGAGGAUCACCCAUGUUAAUUGGGUUAAUGUCUAAGAAGGGCGAUGAA [JR_EX5_Sub013] (Eterna round: R97, puzzle: Exclusion 5) | 126 nM |  | 67.4 nM |  | 
GUCCGGCAUGUAGGAUAUGGAUCCGAUUAGGAUUUAGAAGGACAUGAGGAUCACCCAUGUGCAUUUAAUUAGUCAUUACCGGAC [EXclNG1-LROPPY04] (Eterna round: R96, puzzle: Exclusion NG 1) | 16.4 nM | 12.5 nM | 16.6 nM |  | 
GUCCUUUCUGAGGAUAUUAUCCUUUUCGAUUGAUAAGAAGGCAGUACAUGAGGAUCACCCAUGUGGGUUGUCUG [Polaris30] (Eterna round: R97, puzzle: Exclusion 6) | 45.8 nM |  | 38.2 nM |  | 
GUCGUGCAGCUUUGCUGUACGAGUACAUGAGGAUCACCCAUGUAGGAUAUGGUACGCUUUGCGUGCCAGAAGGGCGUGCGUUGG [salish99_ExNG3_r04_005] (Eterna round: R96, puzzle: Exclusion NG 3) | 30.2 nM | 24 nM | 34.6 nM |  | 
GUCGUGCGGCUUUGCUGUACGAGUACAUGAGGAUCACCCAUGUAGGAUAUGGUUCGUUUUGCGUGCUAGAAGGGCGUGCGUUGU [Excl-NG3-LRO15] (Eterna round: R96, puzzle: Exclusion NG 3) |  | 17.9 nM |  |  | 
GUGAACUCGCUACUUACCAACAUGAGGAUCACCCAUGUGGGAGAAAGUGAAUAGCUAGUUGUUACGUCUUAAUCCAG [Eternabot (L1) Solution 47] (Eterna round: R97, puzzle: Sensor, turn-off variant 1) | 12.7 nM |  | 13 nM |  | 
GUGAAUGCAAGCUUUAAAUACAUGAGGAUCACCCAUGUAAACGCUAACCGCGAUAAUUACUGGGUACCUCCCGUCUU [Eternabot (L2) Solution 44] (Eterna round: R97, puzzle: Sensor, turn-off variant 1) | 8.7 nM |  | 24.9 nM |  | 
GUGACCAUAGGAUAUACAUGAGGAUCACCCAUGUGCAGGCCGAAAGACCUGCGGUCAUGUAGAAGGAUGUAAUU [EX3 A.17] (Eterna round: R97, puzzle: Exclusion 3) | 19.6 nM |  | 16.4 nM |  | 
GUGAGGGAGUGAGGAUAUCAGGGAGGUGGGAAAUGAGAAGGUACAUGAGGAUCACCCAUGUAAGAGUAGGGAAGAGAGAAGAGU [Default title] (Eterna round: R96, puzzle: Exclusion NG 1) | 78.7 nM | 109 nM | 83.8 nM |  | 
GUGAGUAGUCAGGAUAUGCUGUACAAAAGUACAGCAGAAGGGAUUACAUGAGGAUCACCCAUGUUUACUUCGUG [Omei Ex6 B3] (Eterna round: R97, puzzle: Exclusion 6) | 105 nM |  | 29.7 nM |  | 
GUGAUGUAGCACAAUAAGUUUUUUGCCGUCUUAGGUCCAACAUGAGGAUCACCCAUGUACGUCUACAUGCACUUUAA [Veveuslabe] (puzzle: Sensor v3, turn-off variant 2) |  |  |  | 197 nM | apparent KD of MS2 coat protein [2]: 66.4 nM; apparent KD of MS2 coat protein [4]: 81.2 nM

Sequence | apparent KD of MS2 coat protein (input ligand: FMN 200 uM) | apparent KD of MS2 coat protein [1] | apparent KD of MS2 coat protein (input ligand: none) | apparent KD of MS2 coat protein [3] | further results
GUGCAACAUGAGGAUCACCCAUGUUAGGAUAUGUCCUUGGAGACGCACUAGCUCUGAGACAGAAGGGACAGAGG [Eternabot (Original) Solution 34] (Eterna round: R97, puzzle: Exclusion 1) | 69.9 nM |  | 51.2 nM |  | 
GUGCGGUGAGGAUAUACGUAGGUACAGAUCUGUGUGUUCCUACAUGAGGAUCACCCAUGUAGAAGGCAUGGCAC [LRO-Excl2-12] (puzzle: Exclusion 2) |  |  |  | 38.4 nM | 
GUGGGACAUGAGGAUCACCCAUGUCAGGAUAUUUGGGCGAGAUUCGAUCUCGUUAGCCGGAGAAGGGACGUAUG [Eternabot (L2) Solution 47] (Eterna round: R97, puzzle: Exclusion 1) | 34.7 nM |  | 25 nM |  | 
GUGGUACAUGAGGAUCACCCAUGUCAGGAUAUCGUGUGUUUUUUUUCGGCCGCGCGCGCGAGAAGGGACGUCUU (puzzle: Exclusion 1) |  |  |  | 16.8 nM | 
GUGGUACAUGAGGAUCACCCAUGUGAGGAUAUGUCUGUCUGUUGGUUUCGGCGGGCGGGCAGAAGGCGCGUCGC [-27.3, -25.1 kcal, 16% A] (Eterna round: R97, puzzle: Exclusion 1) | 34.1 nM |  | 31.6 nM |  | 
GUGGUGGGUUUUCCGAGUAACAUGAGGAUCACCCAUGUAGAAGUUGAAGGUAUCAAGCGAAUGGCUCGUCAAAUGUG [JR_SV3TOV1_Sub047] (puzzle: Sensor v3, turn-off variant 1) |  |  |  | 17.5 nM | apparent KD of MS2 coat protein [2]: 42.3 nM; apparent KD of MS2 coat protein [4]: 46.4 nM
GUGGUGGGUUUUCCGAGUGACAUGAGGAUCACCCAUGUGUUAGUUUGAGGUAUCAAGCGAAUGGCUCGUCUUAUGUG [JR_SV3TOV1_Sub046] (Eterna round: R96, puzzle: Sensor v3, turn-off variant 1) | 982 nM | 44.7 nM | 623 nM |  | 
GUGGUGGGUUUUCCGAGUGACAUGAGGAUCACCCAUGUGUUAGUUUGAGGUAUCAAGCGAAUGGCUCGUCUUAUGUG [JR_SV3TOV1_Sub046] (puzzle: Sensor v3, turn-off variant 1) |  |  |  | 21.2 nM | apparent KD of MS2 coat protein [2]: 140 nM; apparent KD of MS2 coat protein [4]: 154 nM
GUGUAACUACACGGGCUCAACAUGAGGAUCACCCAUGUCAUACACGCAAGCUUUUUGCUUGUCUUAUCUGUCCGUGA [Raenzama] (puzzle: Sensor v3, turn-off variant 1) |  |  |  | 13.5 nM | apparent KD of MS2 coat protein [2]: 12.1 nM; apparent KD of MS2 coat protein [4]: 10.4 nM
GUGUACAGAGGAUAUACUUGAAUCUAGCGAAGCUAGGUUUGACAUGAGGAUCACCCAUGUAGAAGGCUGUACAC [Dot plot directed A v1] (puzzle: Exclusion 2) |  |  |  | 13.7 nM | 
GUGUACGGAGGAUAUAUAUGGGCAGGCUGACCUGCAGCUUCACAUGAGGAUCACCCAUGUAGAAGGCUGUGCAC [JL-ex2-2.07 Brourd mod] (puzzle: Exclusion 2) |  |  |  | 27.1 nM | 
GUGUACGGAGGAUAUAUGUGGCGAGCAUACGCUCGAGCUUCACAUGAGGAUCACCCAUGUAGAAGGCUGUGCAC [JL-ex2-2.12 Brourd mod] (puzzle: Exclusion 2) |  |  |  | 17.9 nM | 
GUGUAGAUAGGAUAUGCGUGAGUCUAGCGAAGCUAGAUUCUACAUGAGGAUCACCCAUGUAGAAGGGUCUACAC [Fiskers Ex 2 - 26] (puzzle: Exclusion 2) |  |  |  | 15.9 nM | 
GUGUAGGGAGGAUAUACAUGAGGAUCACCCAUGUGAAUAAGAUAGAAUAAGAUAAAGUGUAGAAGGUCUAGUGU [Excluse me!!! 12 - Jieux - Exclusion 3] (puzzle: Exclusion 3) |  |  |  | 52.7 nM | 
GUGUAGGUAGGAUAUACAUGAGGAUCACCCAUGUGAAUAAGAUAGAAUAAGAUAAAGUGUAGAAGGGCUAGUGU [Excluse me!!! 13 - Jieux - Exclusion 3] (puzzle: Exclusion 3) |  |  |  | 34.5 nM | 
GUGUGCUGAGGAUAUACAUAGGAAUAGAAUAGAAUAGAAUGACAUGAGGAUCACCCAUGUAGAAGGCAGAGUGU [Excluse me!! 13 - Jieux - Exclusion 2] (puzzle: Exclusion 2) |  |  |  | 21.4 nM | apparent KD of MS2 coat protein [2]: 39.6 nM; apparent KD of MS2 coat protein [4]: 24.8 nM
GUGUUGCGAGGAUAUAUAAGGGUAUGUUCUUGAGGUAUGGAACAUGAGGAUCACCCAUGUAGAAGGUGCAUAAC [JR_Ex2_Sub045] (Eterna round: R97, puzzle: Exclusion 2) | 507 nM |  | 247 nM |  | 
